Patent US20190145976A1 (GOVERNING COUNCIL OF THE UNIVERSITY OF TORONTO, published 2019)

How the values were obtained:
[1] = biological target: T1, recombinant soluble human αKlotho (human, UniProt Q9UEF7 34-981); experiment: competitive Fab-phage ELISA with soluble human αKlotho as competitor (FIG. 1C)
T1 construct: extracellular domain; Bought (R&D Systems); also called Hu aKL; soluble human αKlotho ectodomain
T1 sequence (looked up): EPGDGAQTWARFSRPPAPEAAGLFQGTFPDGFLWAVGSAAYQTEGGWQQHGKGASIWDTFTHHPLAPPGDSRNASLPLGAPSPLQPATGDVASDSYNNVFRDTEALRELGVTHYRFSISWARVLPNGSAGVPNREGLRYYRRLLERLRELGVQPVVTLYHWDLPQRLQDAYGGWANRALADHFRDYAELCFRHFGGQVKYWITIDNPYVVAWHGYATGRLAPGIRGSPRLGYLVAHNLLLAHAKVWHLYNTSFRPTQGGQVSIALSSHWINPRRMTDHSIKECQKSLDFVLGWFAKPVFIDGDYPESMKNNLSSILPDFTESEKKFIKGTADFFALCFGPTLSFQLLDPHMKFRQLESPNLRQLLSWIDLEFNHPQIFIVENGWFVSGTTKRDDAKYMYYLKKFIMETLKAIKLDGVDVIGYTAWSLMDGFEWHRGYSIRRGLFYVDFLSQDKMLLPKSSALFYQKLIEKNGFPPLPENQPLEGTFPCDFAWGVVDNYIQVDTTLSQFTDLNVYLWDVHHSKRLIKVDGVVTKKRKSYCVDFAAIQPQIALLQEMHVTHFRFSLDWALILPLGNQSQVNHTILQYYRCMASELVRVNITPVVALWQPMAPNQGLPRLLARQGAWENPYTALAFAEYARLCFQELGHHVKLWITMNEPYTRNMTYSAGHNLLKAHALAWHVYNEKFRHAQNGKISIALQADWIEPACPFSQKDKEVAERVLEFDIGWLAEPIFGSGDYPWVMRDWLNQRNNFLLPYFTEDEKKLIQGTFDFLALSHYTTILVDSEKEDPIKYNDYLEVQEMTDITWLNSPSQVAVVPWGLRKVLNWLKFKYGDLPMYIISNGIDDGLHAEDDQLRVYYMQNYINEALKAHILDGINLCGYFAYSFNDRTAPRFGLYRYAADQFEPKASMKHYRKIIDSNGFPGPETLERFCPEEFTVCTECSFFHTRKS
Description: (§1) (B) Specificity determination of anti-αKlotho sb106 by Fab-phage ELISA: sb106 Fab-phage were incubated with the following immobilized antigens: a complex of FGFR1c/αKlotho complex (aKL-R1), FGFR1c alone (R1), human αKlotho (Hu aKL) and mouse αKlotho (Mu aKL), or neutravidin (NA) and bovine serum albumin (BSA) as negative controls. After washing off unbound phage, bound phages were detected using an HRP-conjugated anti-phage antibody. Colorimetric HRP reagents allow for absorbance readings at 450 nm. […] The binding signals to immobilized human αKlotho reported are an average of two data sets.
(§2) Binding selections, phage ELISAs and Fab protein purification were performed as described. Briefly, phage from library F were cycled through rounds of panning with the binary complex of αKlotho extracellular domain and FGFR1c ligand-binding domain on 96-well Maxisorp Immunoplates (Fisher Scientific, Nepean, ON, Canada) as the capture target. After 5 rounds of selection, phage were produced from individual clones grown in a 96-well format and phage ELISAs were performed to detect specific binding clones. […] A competitive binding ELISA was performed by pre-incubating sb106-phage with serial dilutions of soluble human αKlotho (50-0.0005 nM×1 hour) prior to binding to an ELISA plate coated with human αKlotho. […]

[2] = biological target: T2, ligand-binding domain of human FGFR1c (D142 to R365) (human, UniProt P11362 142-365); experiment: Fab-phage ELISA on immobilised antigen, HRP-conjugated anti-phage antibody, absorbance at 450 nm
T2 construct: range 142-365; also called FGFR1c alone
T2 sequence (looked up): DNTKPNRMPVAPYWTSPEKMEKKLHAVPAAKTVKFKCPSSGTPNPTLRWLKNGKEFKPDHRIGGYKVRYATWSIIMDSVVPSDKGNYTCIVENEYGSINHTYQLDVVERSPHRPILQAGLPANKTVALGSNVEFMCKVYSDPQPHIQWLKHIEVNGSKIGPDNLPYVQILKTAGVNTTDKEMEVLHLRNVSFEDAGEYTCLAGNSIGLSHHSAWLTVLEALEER
Description: as §1
(§3) Binding selections, phage ELISAs and Fab protein purification were performed as described. Briefly, phage from library F were cycled through rounds of panning with the binary complex of αKlotho extracellular domain and FGFR1c ligand-binding domain on 96-well Maxisorp Immunoplates (Fisher Scientific, Nepean, ON, Canada) as the capture target. After 5 rounds of selection, phage were produced from individual clones grown in a 96-well format and phage ELISAs were performed to detect specific binding clones. […] A competitive binding ELISA was performed by pre-incubating sb106-phage with serial dilutions of soluble human αKlotho (50-0.0005 nM×1 hour) prior to binding to an ELISA plate coated with human αKlotho. […] Fab and IgG proteins were affinity-purified on Protein A affinity columns (GE Healthcare, Mississauga, ON, Canada).

neutravidin = biological target: T3, neutravidin (UniProt P02701 25-152); experiment: as above
T3 construct: Negative control in the phage ELISA; also called NA; NAV
Description: as §1, §3

bovine serum albumin = biological target: T4, bovine serum albumin (bovine, UniProt P02769 25-607); experiment: as above
T4 construct: Negative control in the phage ELISA; also called BSA
Description: as §1, §3

[3] = biological target: T1, recombinant soluble human αKlotho; experiment: competitive Fab-phage ELISA: sb106-phage pre-incubated with soluble human αKlotho (50-0.0005 nM), then bound to plate-coated human αKlotho; competitive Fab-phage ELISA; soluble human αKlotho as competitor
Description: as §1, §2

[4] = biological target: T5, native rat αKlotho in tissue and NRK cells (rat, UniProt Q9Z2Y9 35-1014); experiment: immunohistochemistry on freshly frozen unfixed rat parathyroid sections; freshly frozen unfixed rat parathyroid tissue (native fold)
T5 construct: also called αKlotho of rat parathyroid tissue; native αKlotho of NRK cells
T5 sequence (looked up): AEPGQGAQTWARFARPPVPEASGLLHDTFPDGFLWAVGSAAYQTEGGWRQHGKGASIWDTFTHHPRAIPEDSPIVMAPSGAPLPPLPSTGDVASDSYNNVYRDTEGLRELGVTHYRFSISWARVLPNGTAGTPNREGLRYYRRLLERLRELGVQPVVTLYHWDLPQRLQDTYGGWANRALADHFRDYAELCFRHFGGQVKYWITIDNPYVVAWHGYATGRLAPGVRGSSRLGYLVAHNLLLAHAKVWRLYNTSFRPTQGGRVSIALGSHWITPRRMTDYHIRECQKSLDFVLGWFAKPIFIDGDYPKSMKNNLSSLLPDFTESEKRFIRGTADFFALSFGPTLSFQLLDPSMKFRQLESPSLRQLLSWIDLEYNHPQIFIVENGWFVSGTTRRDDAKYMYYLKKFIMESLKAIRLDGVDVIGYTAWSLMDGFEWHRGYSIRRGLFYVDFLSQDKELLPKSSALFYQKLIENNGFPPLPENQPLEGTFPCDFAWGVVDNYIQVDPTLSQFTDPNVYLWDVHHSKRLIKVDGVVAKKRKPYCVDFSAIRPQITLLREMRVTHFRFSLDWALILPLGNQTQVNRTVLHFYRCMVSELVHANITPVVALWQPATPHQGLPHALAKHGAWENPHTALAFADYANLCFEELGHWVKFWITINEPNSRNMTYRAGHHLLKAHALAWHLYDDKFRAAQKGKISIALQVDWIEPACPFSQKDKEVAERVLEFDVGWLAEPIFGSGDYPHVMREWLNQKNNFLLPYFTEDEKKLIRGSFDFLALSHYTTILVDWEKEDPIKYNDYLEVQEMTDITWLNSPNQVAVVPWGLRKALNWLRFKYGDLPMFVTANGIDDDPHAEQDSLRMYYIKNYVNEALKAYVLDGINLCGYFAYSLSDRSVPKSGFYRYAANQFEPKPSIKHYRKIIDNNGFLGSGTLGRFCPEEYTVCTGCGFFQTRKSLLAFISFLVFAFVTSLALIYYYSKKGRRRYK
Description: For labeling, sections were blocked (PBS, 1.5% BSA, 10% goat serum; 40 min) and incubated with the primary antibody sb106 ([…] in blocking solution; 4° C. overnight). After washing (PBS), sections were incubated with the Alexa 546 goat anti-human IgG (1:800 dilution, Invitrogen) for 1 hour at room temperature. After additional washes with PBS, the sections were fixed with 4% paraformaldehyde in PBS, washed with PBS, and mounted and visualized with a Zeiss LSM510 microscope.
Sb106 was highly reactive against αKlotho under native conditions. Immunoblot signals under denaturing conditions against mouse, rat, and human kidney tissue were weak, but in samples from transgenic mice overexpressing αKlotho[79], sb106-Fab detected a band corresponding to the full-length extracellular domain of αKlotho (FIG. 2A). In cultured cells, sb106-Fab was not able to detect αKlotho in immunoblots under denaturing conditions with lysates from NRK cells expressing native αKlotho but it was able to detect overexpressed antigen in cell lysates from HEK293 cells transfected with αKlotho (FIG. 2B). […] Cells were then incubated with sb106-Fab ([…] in 1% BSA in PBS) for 1 hr. Cells were washed 5 times with cold PBS (2 min each) and then incubated with anti-FLAG-Alexa488 (the C-terminus of the Fab light chain contains a Flag epitope tag) (1:400 in 1% BSA in PBS) for 1 hr, while being protected from light. […]

T4 sequence (P02769 25-607 limits assumed): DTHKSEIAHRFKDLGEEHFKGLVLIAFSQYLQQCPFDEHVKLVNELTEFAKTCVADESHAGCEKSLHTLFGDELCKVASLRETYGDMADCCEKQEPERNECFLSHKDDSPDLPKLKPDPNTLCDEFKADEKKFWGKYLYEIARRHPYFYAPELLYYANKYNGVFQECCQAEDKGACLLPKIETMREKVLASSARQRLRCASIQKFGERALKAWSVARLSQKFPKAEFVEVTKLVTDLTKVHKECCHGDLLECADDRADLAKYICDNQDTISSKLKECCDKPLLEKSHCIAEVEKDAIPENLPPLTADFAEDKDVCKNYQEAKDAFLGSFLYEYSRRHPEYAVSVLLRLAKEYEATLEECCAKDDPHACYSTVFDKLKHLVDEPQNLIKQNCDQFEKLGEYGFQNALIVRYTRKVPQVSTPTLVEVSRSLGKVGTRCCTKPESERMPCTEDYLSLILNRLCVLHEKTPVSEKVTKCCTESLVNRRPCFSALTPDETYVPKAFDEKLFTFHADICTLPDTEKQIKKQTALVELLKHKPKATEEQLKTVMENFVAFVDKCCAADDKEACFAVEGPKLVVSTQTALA
T3 sequence (P02701 25-152): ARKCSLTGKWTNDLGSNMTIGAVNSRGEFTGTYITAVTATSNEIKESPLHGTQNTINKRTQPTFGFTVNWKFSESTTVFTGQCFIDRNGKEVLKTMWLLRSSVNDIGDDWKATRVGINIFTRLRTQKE

B1: sb106 Fab-phage (Fab, V domains shown)
VH: EVQLVESGGGLVQPGGSLRLSCAASGFNISYYSIHWVRQAPGKGLEWVAYISPSYGYTSYADSVKGRFTISADTSKNTAYLQMNSLRAEDTAVYYCARYYVYASHGWAGYGMDYWGQGTLVTVSS
VL: DIQMTQSPSSLSASVGDRVTITCRASQSVSSAVAWYQQKPGKAPKLLIYSASSLYSGVPSRFSGSRSGTDFTLTISSLQPEDFATYYCQQAGYSPITFGQGTKVEIKR
notes: also called sb106-phage; Sb106-phage
Kd [1]: 1 to 2 nM
binding result [2]: no binding
binding result (neutravidin): no binding
binding result (bovine serum albumin): no binding
IC50 [3]: 1.7 nM

B2: sb106-IgG (antibody, V domains shown)
VH: B1 VH
VL: B1 VL
binding result [4]: binds
